Starred links: 1 amine or outer side, 2 acyl side, 3 side chain; linkers in the order of their positions; H or OH if unused. Positions of bridges follow the written chain, without caps; N, C: chain ends. Non-standard residues stand in square brackets, D forms with d. Groups on a side chain read outwards from the residue. *: point of attachment. (Piperazine-1-yl)‑acetyl = piperazin-1-yl-acetyl spacer, O=C(CN1CCN([*:1])CC1)[*:2]; C20 diacid = O=C(O)CCCCCCCCCCCCCCCCCCC(=O)*; Trp(1-Me) = Cn1cc(C[C@H](N)C(=O)O)c2ccccc21; C18 diacid = O=C(O)CCCCCCCCCCCCCCCCC(=O)*; C16 diacid = O=C(O)CCCCCCCCCCCCCCC(=O)*; γGlu = O=C(O)[C@H](CCC(=O)[*:2])N[*:1]; AEEA = NCCOCCOCC(=O)O; Sar = CNCC(=O)O
B1: Compound 99 (peptide)
peptide: {C16 diacid}-ESSAICIWQDWGEHRCTEGE-NH2
modifications: disulfide 6-16
B2: Compound 95 (peptide)
peptide: Ac-ICIWQDWGEHRCTEGK([AEEA-AEEA-(Piperazine-1-yl)‑acetyl-C16 diacid])-NH2
modifications: disulfide 2-12
B3: Compound 96 (peptide)
peptide: Ac-ICIWQDWGEHRCTEGK([AEEA-AEEA-γGlu-C18 diacid])-NH2
modifications: disulfide 2-12
SMILES: CC[C@H](C)[C@H](NC(C)=O)C(=O)N[C@H]1CSSC[C@@H](C(=O)N[C@H](C(=O)N[C@@H](CCC(=O)O)C(=O)NCC(=O)N[C@@H](CCCCNC(=O)COCCOCCNC(=O)COCCOCCNC(=O)CC[C@H](NC(=O)CCCCCCCCCCCCCCCCC(=O)O)C(=O)O)C(N)=O)[C@@H](C)O)NC(=O)[C@H](CCCNC(=N)N)NC(=O)[C@H](Cc2c[nH]cn2)NC(=O)[C@H](CCC(=O)O)NC(=O)CNC(=O)[C@H](Cc2c[nH]c3ccccc23)NC(=O)[C@H](CC(=O)O)NC(=O)[C@H](CCC(N)=O)NC(=O)[C@H](Cc2c[nH]c3ccccc23)NC(=O)[C@H]([C@@H](C)CC)NC1=O
B4: Compound 101 (peptide)
peptide: Ac-EGSAICIWQDWGEHRCTEGK([γGlu-C16 diacid])-NH2
modifications: disulfide 6-16
SMILES: CC[C@H](C)[C@H](NC(=O)[C@H](C)NC(=O)[C@H](CO)NC(=O)CNC(=O)[C@H](CCC(=O)O)NC(C)=O)C(=O)N[C@H]1CSSC[C@@H](C(=O)N[C@H](C(=O)N[C@@H](CCC(=O)O)C(=O)NCC(=O)N[C@@H](CCCCNC(=O)CC[C@H](NC(=O)CCCCCCCCCCCCCCC(=O)O)C(=O)O)C(N)=O)[C@@H](C)O)NC(=O)[C@H](CCCNC(=N)N)NC(=O)[C@H](Cc2c[nH]cn2)NC(=O)[C@H](CCC(=O)O)NC(=O)CNC(=O)[C@H](Cc2c[nH]c3ccccc23)NC(=O)[C@H](CC(=O)O)NC(=O)[C@H](CCC(N)=O)NC(=O)[C@H](Cc2c[nH]c3ccccc23)NC(=O)[C@H]([C@@H](C)CC)NC1=O
B5: Compound 98 (peptide)
peptide: Ac-ICIWQDWGEHRCTEGK([AEEA-AEEA-γGlu-C20 diacid])-NH2
modifications: disulfide 2-12
SMILES: CC[C@H](C)[C@H](NC(C)=O)C(=O)N[C@H]1CSSC[C@@H](C(=O)N[C@H](C(=O)N[C@@H](CCC(=O)O)C(=O)NCC(=O)N[C@@H](CCCCNC(=O)COCCOCCNC(=O)COCCOCCNC(=O)CC[C@H](NC(=O)CCCCCCCCCCCCCCCCCCC(=O)O)C(=O)O)C(N)=O)[C@@H](C)O)NC(=O)[C@H](CCCNC(=N)N)NC(=O)[C@H](Cc2c[nH]cn2)NC(=O)[C@H](CCC(=O)O)NC(=O)CNC(=O)[C@H](Cc2c[nH]c3ccccc23)NC(=O)[C@H](CC(=O)O)NC(=O)[C@H](CCC(N)=O)NC(=O)[C@H](Cc2c[nH]c3ccccc23)NC(=O)[C@H]([C@@H](C)CC)NC1=O
B6: Compound 100 (peptide)
peptide: Ac-K([AEEA-AEEA-γGlu-C16 diacid])GSAICIWQDWGEHRCTEGE-NH2
modifications: disulfide 6-16
SMILES: CC[C@H](C)[C@H](NC(=O)[C@H](C)NC(=O)[C@H](CO)NC(=O)CNC(=O)[C@H](CCCCNC(=O)COCCOCCNC(=O)COCCOCCNC(=O)CC[C@H](NC(=O)CCCCCCCCCCCCCCC(=O)O)C(=O)O)NC(C)=O)C(=O)N[C@H]1CSSC[C@@H](C(=O)N[C@H](C(=O)N[C@@H](CCC(=O)O)C(=O)NCC(=O)N[C@@H](CCC(=O)O)C(N)=O)[C@@H](C)O)NC(=O)[C@H](CCCNC(=N)N)NC(=O)[C@H](Cc2c[nH]cn2)NC(=O)[C@H](CCC(=O)O)NC(=O)CNC(=O)[C@H](Cc2c[nH]c3ccccc23)NC(=O)[C@H](CC(=O)O)NC(=O)[C@H](CCC(N)=O)NC(=O)[C@H](Cc2c[nH]c3ccccc23)NC(=O)[C@H]([C@@H](C)CC)NC1=O
B7: Compound 97 (peptide)
peptide: Ac-ICIWQDWGEHRCTEGEK([AEEA-AEEA-γGlu-C18 diacid])-NH2
modifications: disulfide 2-12
SMILES: CC[C@H](C)[C@H](NC(C)=O)C(=O)N[C@H]1CSSC[C@@H](C(=O)N[C@H](C(=O)N[C@@H](CCC(=O)O)C(=O)NCC(=O)N[C@@H](CCC(=O)O)C(=O)N[C@@H](CCCCNC(=O)COCCOCCNC(=O)COCCOCCNC(=O)CC[C@H](NC(=O)CCCCCCCCCCCCCCCCC(=O)O)C(=O)O)C(N)=O)[C@@H](C)O)NC(=O)[C@H](CCCNC(=N)N)NC(=O)[C@H](Cc2c[nH]cn2)NC(=O)[C@H](CCC(=O)O)NC(=O)CNC(=O)[C@H](Cc2c[nH]c3ccccc23)NC(=O)[C@H](CC(=O)O)NC(=O)[C@H](CCC(N)=O)NC(=O)[C@H](Cc2c[nH]c3ccccc23)NC(=O)[C@H]([C@@H](C)CC)NC1=O
B8: Compound 103 (peptide)
peptide: Ac-EGSAYCI[Trp(1-Me)]QDWGEHK([AEEA-AEEA-γGlu-C16 diacid])C[Sar]E-NH2
modifications: disulfide 6-16
SMILES: CC[C@H](C)[C@@H]1NC(=O)[C@@H](NC(=O)[C@H](Cc2ccc(O)cc2)NC(=O)[C@H](C)NC(=O)[C@H](CO)NC(=O)CNC(=O)[C@H](CCC(=O)O)NC(C)=O)CSSC[C@@H](C(=O)N(C)CC(=O)N[C@@H](CCC(=O)O)C(N)=O)NC(=O)[C@H](CCCCNC(=O)COCCOCCNC(=O)COCCOCCNC(=O)CC[C@H](NC(=O)CCCCCCCCCCCCCCC(=O)O)C(=O)O)NC(=O)[C@H](Cc2c[nH]cn2)NC(=O)[C@H](CCC(=O)O)NC(=O)CNC(=O)[C@H](Cc2c[nH]c3ccccc23)NC(=O)[C@H](CC(=O)O)NC(=O)[C@H](CCC(N)=O)NC(=O)[C@H](Cc2cn(C)c3ccccc23)NC1=O
B9: Compound 94 (peptide)
peptide: Ac-ICIWQDWGEHRCTEGEK([AEEA-AEEA-γGlu-C16 diacid])-NH2
modifications: disulfide 2-12
SMILES: CC[C@H](C)[C@H](NC(C)=O)C(=O)N[C@H]1CSSC[C@@H](C(=O)N[C@H](C(=O)N[C@@H](CCC(=O)O)C(=O)NCC(=O)N[C@@H](CCC(=O)O)C(=O)N[C@@H](CCCCNC(=O)COCCOCCNC(=O)COCCOCCNC(=O)CC[C@H](NC(=O)CCCCCCCCCCCCCCC(=O)O)C(=O)O)C(N)=O)[C@@H](C)O)NC(=O)[C@H](CCCNC(=N)N)NC(=O)[C@H](Cc2c[nH]cn2)NC(=O)[C@H](CCC(=O)O)NC(=O)CNC(=O)[C@H](Cc2c[nH]c3ccccc23)NC(=O)[C@H](CC(=O)O)NC(=O)[C@H](CCC(N)=O)NC(=O)[C@H](Cc2c[nH]c3ccccc23)NC(=O)[C@H]([C@@H](C)CC)NC1=O
B10: Compound 5 (peptide)
peptide: Ac-ICIWQDWGKHRCT-NH2
modifications: disulfide 2-12
SMILES: CC[C@H](C)[C@H](NC(C)=O)C(=O)N[C@H]1CSSC[C@@H](C(=O)N[C@H](C(N)=O)[C@@H](C)O)NC(=O)[C@H](CCCNC(=N)N)NC(=O)[C@H](Cc2c[nH]cn2)NC(=O)[C@H](CCCCN)NC(=O)CNC(=O)[C@H](Cc2c[nH]c3ccccc23)NC(=O)[C@H](CC(=O)O)NC(=O)[C@H](CCC(N)=O)NC(=O)[C@H](Cc2c[nH]c3ccccc23)NC(=O)[C@H]([C@@H](C)CC)NC1=O

Biological target: Human C3 (Complement tech cat #A113c) (human, UniProt P01024 23-1663)
Experiment: cell-based or functional assay

Sequence of Human C3 (Complement tech cat #A113c) (P01024 23-1663 limits assumed): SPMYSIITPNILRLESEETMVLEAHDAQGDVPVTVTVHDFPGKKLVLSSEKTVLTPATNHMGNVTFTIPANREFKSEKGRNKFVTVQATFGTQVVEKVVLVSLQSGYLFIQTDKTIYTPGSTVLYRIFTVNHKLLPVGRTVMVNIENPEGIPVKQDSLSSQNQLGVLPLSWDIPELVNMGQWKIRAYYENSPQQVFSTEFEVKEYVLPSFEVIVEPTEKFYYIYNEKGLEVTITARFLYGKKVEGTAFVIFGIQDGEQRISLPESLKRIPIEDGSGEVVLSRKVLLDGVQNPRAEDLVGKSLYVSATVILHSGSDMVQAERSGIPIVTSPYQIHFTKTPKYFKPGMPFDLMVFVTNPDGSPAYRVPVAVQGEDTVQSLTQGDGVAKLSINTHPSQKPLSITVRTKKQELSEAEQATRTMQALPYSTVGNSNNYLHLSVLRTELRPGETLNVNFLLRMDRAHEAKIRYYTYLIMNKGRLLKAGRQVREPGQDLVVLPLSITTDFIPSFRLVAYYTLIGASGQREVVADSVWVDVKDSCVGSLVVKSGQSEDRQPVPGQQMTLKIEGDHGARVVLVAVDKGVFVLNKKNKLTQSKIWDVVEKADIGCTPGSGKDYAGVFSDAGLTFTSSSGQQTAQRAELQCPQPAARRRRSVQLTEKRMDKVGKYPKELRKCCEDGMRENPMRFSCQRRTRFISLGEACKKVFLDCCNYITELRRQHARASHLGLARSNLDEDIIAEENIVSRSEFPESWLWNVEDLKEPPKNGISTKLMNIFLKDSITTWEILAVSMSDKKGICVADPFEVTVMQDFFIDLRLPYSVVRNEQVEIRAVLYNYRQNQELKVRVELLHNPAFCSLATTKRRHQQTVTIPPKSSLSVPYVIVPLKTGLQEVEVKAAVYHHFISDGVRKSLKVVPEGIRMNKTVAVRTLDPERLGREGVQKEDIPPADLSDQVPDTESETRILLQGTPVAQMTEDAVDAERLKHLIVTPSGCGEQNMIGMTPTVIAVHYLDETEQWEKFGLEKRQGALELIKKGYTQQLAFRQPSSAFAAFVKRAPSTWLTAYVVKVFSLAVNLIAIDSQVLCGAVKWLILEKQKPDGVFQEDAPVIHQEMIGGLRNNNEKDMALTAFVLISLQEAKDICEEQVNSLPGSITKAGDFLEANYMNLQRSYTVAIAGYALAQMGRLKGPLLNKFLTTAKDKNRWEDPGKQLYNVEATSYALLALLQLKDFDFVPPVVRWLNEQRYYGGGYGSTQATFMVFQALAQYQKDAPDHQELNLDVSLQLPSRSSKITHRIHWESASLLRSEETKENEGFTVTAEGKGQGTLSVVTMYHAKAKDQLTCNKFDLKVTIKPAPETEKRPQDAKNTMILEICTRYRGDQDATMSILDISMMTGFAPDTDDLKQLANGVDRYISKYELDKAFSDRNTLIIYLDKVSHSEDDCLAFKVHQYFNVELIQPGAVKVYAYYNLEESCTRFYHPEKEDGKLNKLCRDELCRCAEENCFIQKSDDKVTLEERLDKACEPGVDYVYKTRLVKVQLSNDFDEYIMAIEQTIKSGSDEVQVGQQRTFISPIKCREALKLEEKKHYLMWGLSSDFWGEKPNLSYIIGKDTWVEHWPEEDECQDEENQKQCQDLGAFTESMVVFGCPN

B1 and B2 cannot be ordered by “inhibition of hemolysis IC50” value: < 250 nM for the first, < 500 nM for the second.

B3 and B4 cannot be ordered by “inhibition of hemolysis IC50” value: < 1000 nM for the first, < 500 nM for the second.

B5 and B6 cannot be ordered by “inhibition of hemolysis IC50” value: < 500 nM for the first, < 500 nM for the second.

B7 and B8 cannot be ordered by “inhibition of hemolysis IC50” value: < 250 nM for the first, < 100 nM for the second.

B9 and B10 cannot be ordered by “inhibition of hemolysis IC50” value: < 500 nM for the first, < 250 nM for the second.
